Test results as given in patent US20230030529A1 (NORDIC BIOSCIENCE A S, published 2023).
Ends that are not written are not given here. * marks the point of attachment. Biotin = O=C1N[C@H]2[C@H](CS[C@H]2CCCCC(=O)*)N1

T1: Non-sense coating peptide LLARDFEKNY-K-biotin
T1 construct: also called non-sense biotinylated peptide
T1 peptide: LLARDFEKNYK(Biotin)

B1: C4-aa^1355 monoclonal antibody (antibody, V domains shown)
VH: QVTLKESGPGILQPSQTLSLTCSFSGFSLTTYNIGVGWIRQSSGKGLEWLAHIWYNDIKYYNTALKSRLTISKDTSNNQVFLKIASVVTADTATYYCARLRPDSFDYWGQGTTLTVSS
VL: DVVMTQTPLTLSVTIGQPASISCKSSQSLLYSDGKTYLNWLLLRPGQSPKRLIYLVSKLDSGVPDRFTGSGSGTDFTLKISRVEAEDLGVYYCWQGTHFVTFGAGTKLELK
notes: It was SULFO-TAG labelled in the ECLIA; also called the monoclonal antibody
B2: Selection peptide MGNTGPTGAV (peptide)
peptide: MGNTGPTGAV
notes: also called target peptide

How the values were obtained:
[1] = molecular target: T2, Recombinant type IV collagen alpha2 chain, undigested (without protease) (UniProt P08572 184-1712); test: competitive C4-aa^1355 ECLIA on the collagen sample
T2 construct: Bought recombinant protein; also called non-digested type IV collagen; type IV collagen α2 chain
Description: (§1) During assay development, an optimal incubation buffer, time, temperature and concentrations of antibody and coating peptide were determined and the finalized competitive C4-aa¹³⁵⁵ ECLIA protocol was as follows: A MSD GOLD 96-well streptavidin pre-coated plate (Meso Scale Discovery, cat. no. L15SA-1) was incubated with 150 μl/well blocking buffer (10 mM phosphate-buffered saline (PBS) with bovine serum albumin (BSA) (5% w/v) and bronidox (0.36% v/v), 8 g/L NaCl, pH 7.4) for 60 minutes at 20° C. with shaking (300 rpm) in darkness. […] Finally, 150 μl/well of MSD GOLD Read Buffer (Meso Scale Discovery, cat. no. R92TG-2) was added and the plate was read immediately within 2 minutes in a Sector Imager 6000 (Meso Scale Discovery). SULFO-TAG enabled light emission when electricity was applied, and the light emission data was analyzed using the MSD Discovery Workbench 4.0 software. The analyte concentration was calculated using a 4-parametric curve fit model.
To confirm that the C4-aa¹³⁵⁵ antibody/assay recognized a protease generated type IV collagen neo-epitope, C4-aa¹³⁵⁵ was measured in non-digested, MMP-9 digested and GzB digested type IV collagen.

[2] = molecular target: T1, Non-sense coating peptide …; test: ECLIA with the non-sense coating peptide on the streptavidin plate
Description: The target sequence was used as the selection peptide ([…] (SEQ ID No. 1)). The immunogenic peptide ([…]-GGC-KLH) was generated by covalently linking the selection peptide to Keyhole Limpet Hemocyanin (KLH) carrier protein with addition of glycine and cysteine residues in between to ensure right linking. A biotinylated peptide ([…]-K-biotin) was used as a coating peptide. The specificity of the antibody was tested by including an elongated peptide ([…] (SEQ ID No. 7)), a truncated peptide ([…] (SEQ ID No. 3)), a non-sense selection peptide ([…] (SEQ ID No. 18)) and a non-sense coating peptide ([…]-K-biotin). […] Antibody specificity was calculated as percentage of signal inhibition of two-fold diluted peptides.
During assay development, an optimal incubation buffer, time, temperature and concentrations of antibody and coating peptide were determined and the finalized competitive C4-aa¹³⁵⁵ ECLIA protocol was as follows: A MSD GOLD 96-well streptavidin pre-coated plate (Meso Scale Discovery, cat. no. L15SA-1) was incubated with 150 μl/well blocking buffer (10 mM phosphate-buffered saline (PBS) with bovine serum albumin (BSA) (5% w/v) and bronidox (0.36% v/v), 8 g/L NaCl, pH 7.4) for 60 minutes at 20° C. with shaking (300 rpm) in darkness. […]

[3] = molecular target: B2; test: preliminary competitive ELISA, biotinylated coating peptide on streptavidin plates
Description: Female Balb/C mice of 6-7 weeks of age were immunized subcutaneously with 200 μl emulsified antigen containing 100 μg immunogenic peptide ([…]-GGC-KLH) with Stimune Immunogenic adjuvant (Thermo fisher, cat. no. 7925000) repeatedly every second week until stable titer levels were obtained. The mouse with the highest antibody titer rested for four weeks and was then boosted intraperitoneally with immunogenic peptide. After three days, splenocytes were isolated and fused with murine SP2/0 myeloma cells to produce hybridoma cells as previously described (17). The hybridoma cells were cultured in 96-well microtiter plates and limited dilution was used to secure monoclonal growth. Supernatants from the monoclonal antibody producing hybridoma cells were screened for reactivity against the selection peptide and human serum samples in a preliminary competitive ELISA using biotinylated coating peptide on streptavidin-coated microtiter plates (Roche, cat. no. 11940279). The clone with the best reactivity towards the selection peptide was purified using protein-G-columns according to the manufacturer's instructions (GE Healthcare Life Sciences, cat. no. 17-0404-01).

[4] = molecular target: B1; test: competitive C4-aa^1355 ECLIA (peptide in solution against the biotinylated coating peptide)
Description: The target sequence was used as the selection peptide ([…] (SEQ ID No. 1)). The immunogenic peptide ([…]-GGC-KLH) was generated by covalently linking the selection peptide to Keyhole Limpet Hemocyanin (KLH) carrier protein with addition of glycine and cysteine residues in between to ensure right linking. A biotinylated peptide ([…]-K-biotin) was used as a coating peptide. The specificity of the antibody was tested by including an elongated peptide ([…] (SEQ ID No. 7)), a truncated peptide ([…] (SEQ ID No. 3)), a non-sense selection peptide ([…] (SEQ ID No. 18)) and a non-sense coating peptide ([…]-K-biotin). To test for potential cross-reactivity to other ECM proteins with similar sequences, three peptides with one amino acid mismatch at either position one ([…] (SEQ ID No. 6)), three ([…] (SEQ ID No. 4)) or four ([…] (SEQ ID No. 5)) from the N-terminal were included in the specificity test. Antibody specificity was calculated as percentage of signal inhibition of two-fold diluted peptides.
During assay development, an optimal incubation buffer, time, temperature and concentrations of antibody and coating peptide were determined and the finalized competitive C4-aa¹³⁵⁵ ECLIA protocol was as follows: A MSD GOLD 96-well streptavidin pre-coated plate (Meso Scale Discovery, cat. no. L15SA-1) was incubated with 150 μl/well blocking buffer (10 mM phosphate-buffered saline (PBS) with bovine serum albumin (BSA) (5% w/v) and bronidox (0.36% v/v), 8 g/L NaCl, pH 7.4) for 60 minutes at 20° C. with shaking (300 rpm) in darkness. The plate was coated with 25 μl/well biotinylated coating peptide dissolved in assay buffer (50 mM PBS with BSA (1% w/v), Tween-20 (0.1% w/v) and bronidox (0.36% v/v), 8 g/L NaCl, pH 7.4) to a concentration at 2 ng/ml and incubated for 60 minutes at 20° C. with shaking (750 rpm) in darkness. Next, 25 μl/well selection peptide, assay controls or pre-diluted serum/plasma sample (1:2) were added followed by immediately addition of 25 μl/well of SULFO-TAG (MSD GOLD SULFO-TAG NHS-Ester Conjugation, Meso Scale Discovery, cat. no. R31AA-1) labelled monoclonal antibody diluted in assay buffer to a final concentration at 25 ng/ml and the plate incubated 20 hours at 4° C. with shaking (300 rpm) in darkness.

[5] = molecular target: B1; test: competitive C4-aa^1355 ECLIA, peptide in solution against the biotinylated coating peptide
Description: as §1, with “darkness. The plate was coated with 25 μl/well biotinylated coating peptide dissolved in assay buffer (50 mM PBS with BSA (1% w/v), Tween-20 (0.1% w/v) and bronidox (0.36% v/v), 8 g/L NaCl, pH 7.4) to a concentration at 2 ng/ml and incubated for 60 minutes at 20° C. with shaking (750 rpm) in darkness.” for “darkness.”
Target sequence in this assay (VL, as listed by the source): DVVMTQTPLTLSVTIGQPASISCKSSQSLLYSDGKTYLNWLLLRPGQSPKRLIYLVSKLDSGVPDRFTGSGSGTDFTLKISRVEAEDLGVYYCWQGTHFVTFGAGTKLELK

T2 sequence (P08572 184-1712): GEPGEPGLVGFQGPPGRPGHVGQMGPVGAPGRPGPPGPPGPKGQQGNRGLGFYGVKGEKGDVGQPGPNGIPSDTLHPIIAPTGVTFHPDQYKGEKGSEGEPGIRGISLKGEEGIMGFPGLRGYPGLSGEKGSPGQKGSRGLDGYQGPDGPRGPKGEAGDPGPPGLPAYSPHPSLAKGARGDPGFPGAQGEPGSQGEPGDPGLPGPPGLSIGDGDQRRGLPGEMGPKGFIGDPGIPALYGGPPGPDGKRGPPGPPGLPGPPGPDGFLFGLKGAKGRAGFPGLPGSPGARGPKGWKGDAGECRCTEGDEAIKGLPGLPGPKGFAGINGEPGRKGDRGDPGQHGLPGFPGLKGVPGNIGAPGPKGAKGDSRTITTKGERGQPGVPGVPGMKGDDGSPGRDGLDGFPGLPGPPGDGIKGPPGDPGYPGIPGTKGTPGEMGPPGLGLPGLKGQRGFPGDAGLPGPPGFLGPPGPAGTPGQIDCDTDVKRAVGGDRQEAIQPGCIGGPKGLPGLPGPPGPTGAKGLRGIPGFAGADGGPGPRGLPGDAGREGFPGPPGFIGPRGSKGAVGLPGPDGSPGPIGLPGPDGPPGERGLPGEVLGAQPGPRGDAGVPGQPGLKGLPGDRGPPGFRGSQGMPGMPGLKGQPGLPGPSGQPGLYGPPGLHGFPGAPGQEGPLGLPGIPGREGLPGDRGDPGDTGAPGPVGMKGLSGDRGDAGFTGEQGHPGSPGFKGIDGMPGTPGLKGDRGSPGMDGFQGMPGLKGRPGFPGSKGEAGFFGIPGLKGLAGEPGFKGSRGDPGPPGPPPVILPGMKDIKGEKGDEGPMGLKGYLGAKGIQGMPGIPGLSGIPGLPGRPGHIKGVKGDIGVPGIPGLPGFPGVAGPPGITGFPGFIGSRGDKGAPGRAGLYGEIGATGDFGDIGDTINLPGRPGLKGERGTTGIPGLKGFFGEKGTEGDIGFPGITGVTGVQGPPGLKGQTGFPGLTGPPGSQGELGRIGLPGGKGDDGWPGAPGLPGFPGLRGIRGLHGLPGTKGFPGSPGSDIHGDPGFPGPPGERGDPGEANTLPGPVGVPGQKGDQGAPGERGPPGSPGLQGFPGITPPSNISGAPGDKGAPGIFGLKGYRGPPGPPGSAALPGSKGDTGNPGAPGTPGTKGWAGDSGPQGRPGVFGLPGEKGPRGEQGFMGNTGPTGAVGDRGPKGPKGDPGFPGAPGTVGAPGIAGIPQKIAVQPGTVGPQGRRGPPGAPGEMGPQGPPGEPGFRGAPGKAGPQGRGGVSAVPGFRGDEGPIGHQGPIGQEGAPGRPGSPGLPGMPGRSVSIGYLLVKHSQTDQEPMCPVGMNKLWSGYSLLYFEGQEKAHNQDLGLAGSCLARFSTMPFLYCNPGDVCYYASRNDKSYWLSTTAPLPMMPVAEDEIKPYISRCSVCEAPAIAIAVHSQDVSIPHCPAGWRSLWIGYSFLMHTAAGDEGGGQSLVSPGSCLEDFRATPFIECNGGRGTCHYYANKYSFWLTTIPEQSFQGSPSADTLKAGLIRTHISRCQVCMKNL

binding result [4] | Binder | other results
 | B1 | binding result [1]: no binding; binding result [2]: no binding; binding result [3]: binds
no binding | GNTGPTGAV [Truncated peptide GNTGPTGAV] | 
no binding | FMGNTGPTGAV [Elongated peptide FMGNTGPTGAV] | 
 | B2 | binding result [5]: binds
no binding (tested: 0-30 ng/ml) | QGNTGPTGAV (also called Deselection 3) [Deselection peptide 3 QGNTGPTGAV] | 
no binding (tested: 0-30 ng/ml) | MGQTGPTGAV (also called Deselection 1) [Deselection peptide 1 MGQTGPTGAV] | 
no binding | LLARDFEKNY [Non-sense selection peptide LLARDFEKNY] | 
